The target in the test is HLA-A*02:01 (Homo sapiens, UniProt P04439, D140Y/D185E/D98H/E176V/E277Q/G131W/G231S/I119V/I121R/I166T/I218V/L300P/L318F/N151K/N90K/P208A/P217A/Q86G/Q94H/R138H/R169H/T345S). The test is described as follows: MHC binding assay (UV-ligand exchange, β2m ELISA, peptide exchange yield). To be noted: MHC class I binding score; binding to HLA-A*02:01 ranged by peptide exchange yield (UV-ligand exchange, β2m ELISA). Summed up: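 Binding is expressed as peptide exchange yield: stabilized MHC complexes were quantified by β2m ELISA, with a 450 nm TMB read-out on streptavidin-coated plates. Complexes came from UV-ligand exchange, where UV irradiation cleaves a photolabile peptide so the candidate peptide can load.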

As to “403 (KLYDRILRV; listed as Homo sapiens) [compound 403]”, the Peptide exchange entry is “″++″ (≧20% = ++)”.

For the substance “405 (ALYDVFLEV; listed as Homo sapiens) [compound 405]”, the Peptide exchange result was “″++″ (≧20% = ++)”.

With “407 (YLMDLINFL; listed as Homo sapiens) [compound 407]”, the Peptide exchange result was “″+++″ (≧50% = +++)”.

Consider “408 (VLDDSIYLV; listed as Homo sapiens) [compound 408]”, for which the Peptide exchange result is listed as “″++″ (≧20% = ++)”.

Regarding “409 (LLDAMNYHL; listed as Homo sapiens) [compound 409]”, the Peptide exchange result is “″++″ (≧20% = ++)”.

As for “412 (YLDDLNEGVYI; listed as Homo sapiens) [compound 412]”, the Peptide exchange result is “″++″ (≧20% = ++)”.

Turning to “426 (RLADKSVLV; listed as Homo sapiens) [compound 426]”, the Peptide exchange entry is “″+++″ (≧50% = +++)”.

Take “427 (ALLPLSPYL; listed as Homo sapiens) [compound 427]”: the Peptide exchange entry is “″+++″ (≧50% = +++)”.

As for “428 (KLGHTDILVGV; listed as Homo sapiens) [compound 428]”, the Peptide exchange result was “″++″ (≧20% = ++)”.

Turning to “429 (GLVNDLARV; listed as Homo sapiens) [compound 429]”, the Peptide exchange entry is given as “″++″ (≧20% = ++)”.

With “430 (HLYSSIEHLTT; listed as Homo sapiens) [compound 430]”, the Peptide exchange result is “″+++″ (≧50% = +++)”.

As for “431 (SLVNVVPKL; listed as Homo sapiens) [compound 431]”, the Peptide exchange result is “″++″ (≧20% = ++)”.

As to “432 (TLIEESAKV; listed as Homo sapiens) [compound 432]”, the Peptide exchange result was “″++″ (≧20% = ++)”.

With “433 (AMLNEPWAV; listed as Homo sapiens) [compound 433]”, the Peptide exchange result is reported as “″+++″ (≧50% = +++)”.

As for “434 (KVSNSGITRV; listed as Homo sapiens) [compound 434]”, the Peptide exchange result is “″++″ (≧20% = ++)”.

“436 (HLAEVSAEV; listed as Homo sapiens) [compound 436]”: the Peptide exchange result is “″+++″ (≧50% = +++)”.

Turning to “437 (SMAPGLVIQAV; listed as Homo sapiens) [compound 437]”, the Peptide exchange entry is recorded as “″+++″ (≧50% = +++)”.

Take “438 (KLLPLAGLYL; listed as Homo sapiens) [compound 438]”: the Peptide exchange entry is on record as “″++++″ (≧75% = ++++)”.

For the substance “439 (YLLQEIYGI; listed as Homo sapiens) [compound 439]”, the Peptide exchange result is listed as “″+++″ (≧50% = +++)”.

Take “440 (ALADGVTMQV; listed as Homo sapiens) [compound 440]”: the Peptide exchange result was “″++″ (≧20% = ++)”.

In the case of “441 (ALLENPKMEL; listed as Homo sapiens) [compound 441]”, the Peptide exchange result is recorded as “″+++″ (≧50% = +++)”.

Take “442 (GLLGGGGVLGV; listed as Homo sapiens) [compound 442]”: the Peptide exchange entry is recorded as “″+++″ (≧50% = +++)”.

As to “444 (GLLRDEALAEV; listed as Homo sapiens) [compound 444]”, the Peptide exchange result is listed as “″+++″ (≧50% = +++)”.

As for “447 (QLVPALAKV; listed as Homo sapiens) [compound 447]”, the Peptide exchange result is given as “″++″ (≧20% = ++)”.

Take “448 (NLLETKLQL; listed as Homo sapiens) [compound 448]”: the Peptide exchange entry is reported as “″+++″ (≧50% = +++)”.

Take “449 (KLAEGLDIQL; listed as Homo sapiens) [compound 449]”: the Peptide exchange entry is “″+++″ (≧50% = +++)”.

Take “450 (FMIDASVHPTL; listed as Homo sapiens) [compound 450]”: the Peptide exchange result is listed as “″+++″ (≧50% = +++)”.

Regarding “451 (LLLLDTVTMQV; listed as Homo sapiens) [compound 451]”, the Peptide exchange entry is on record as “″++″ (≧20% = ++)”.

For the substance “452 (ILLEHGADPNL; listed as Homo sapiens) [compound 452]”, the Peptide exchange entry is “″+++″ (≧50% = +++)”.

On to “453 (KLLEATSAV; listed as Homo sapiens) [compound 453]”, for which the Peptide exchange entry was “″++″ (≧20% = ++)”.

For the substance “455 (SLLKEPQKVQL; listed as Homo sapiens) [compound 455]”, the Peptide exchange entry was “″++″ (≧20% = ++)”.

On to “456 (LLIGHLERV; listed as Homo sapiens) [compound 456]”, for which the Peptide exchange result is reported as “″+++″ (≧50% = +++)”.

In the case of “457 (SLLPGNLVEKV; listed as Homo sapiens) [compound 457]”, the Peptide exchange result was “″+++″ (≧50% = +++)”.

On to “458 (SLIDKLYNI; listed as Homo sapiens) [compound 458]”, for which the Peptide exchange entry is reported as “″++″ (≧20% = ++)”.

Consider “459 (ALITEVVRL; listed as Homo sapiens) [compound 459]”, for which the Peptide exchange result is “″++″ (≧20% = ++)”.

Take “461 (VMFRTPLASV; listed as Homo sapiens) [compound 461]”: the Peptide exchange result was “″++″ (≧20% = ++)”.

On to “462 (KLAKQPETV; listed as Homo sapiens) [compound 462]”, for which the Peptide exchange result was “″+++″ (≧50% = +++)”.

Turning to “464 (ALNDCIYSV; listed as Homo sapiens) [compound 464]”, the Peptide exchange result is reported as “″+++″ (≧50% = +++)”.

In the case of “465 (QLCDLNAEL; listed as Homo sapiens) [compound 465]”, the Peptide exchange entry was “″+++″ (≧50% = +++)”.

As for “466 (VLIANLEKL; listed as Homo sapiens) [compound 466]”, the Peptide exchange entry was “″++++″ (≧75% = ++++)”.

For “467 (FLAKDFNFL; listed as Homo sapiens) [compound 467]”, the Peptide exchange entry is recorded as “″+++″ (≧50% = +++)”.

For the substance “468 (YLRSVGDGETV; listed as Homo sapiens) [compound 468]”, the Peptide exchange entry is listed as “″+++″ (≧50% = +++)”.

Turning to “469 (YLASDEITTV; listed as Homo sapiens) [compound 469]”, the Peptide exchange entry is “″+++″ (≧50% = +++)”.

Consider “471 (YLYNNMIAKI; listed as Homo sapiens) [compound 471]”, for which the Peptide exchange result is “″+++″ (≧50% = +++)”.

Regarding “472 (KLLEVSDDPQV; listed as Homo sapiens) [compound 472]”, the Peptide exchange result is listed as “″+++″ (≧50% = +++)”.

Consider “473 (AMATESILHFA; listed as Homo sapiens) [compound 473]”, for which the Peptide exchange result was “″+++″ (≧50% = +++)”.

As to “474 (YLDPALELGPRNV; listed as Homo sapiens) [compound 474]”, the Peptide exchange result is “″+++″ (≧50% = +++)”.

Consider “475 (LLLNEEALAQI; listed as Homo sapiens) [compound 475]”, for which the Peptide exchange entry is “″+++″ (≧50% = +++)”.

For “476 (ALMERTGYSMV; listed as Homo sapiens) [compound 476]”, the Peptide exchange entry is listed as “″+++″ (≧50% = +++)”.

In the case of “477 (ALLPASGQIAL; listed as Homo sapiens) [compound 477]”, the Peptide exchange result is listed as “″+++″ (≧50% = +++)”.

As for “478 (YLLHEKLNL; listed as Homo sapiens) [compound 478]”, the Peptide exchange result was “″+++″ (≧50% = +++)”.

For the substance “479 (SLFGNSGILENV; listed as Homo sapiens) [compound 479]”, the Peptide exchange result is listed as “″+++″ (≧50% = +++)”.

Regarding “480 (ALLEDSCHYL; listed as Homo sapiens) [compound 480]”, the Peptide exchange result is “″+++″ (≧50% = +++)”.

Take “481 (GLIEDYEALL; listed as Homo sapiens) [compound 481]”: the Peptide exchange entry was “″+++″ (≧50% = +++)”.

Take “484 (SLIEKVTQL; listed as Homo sapiens) [compound 484]”: the Peptide exchange entry is reported as “″+++″ (≧50% = +++)”.

Regarding “485 (NVPDSFNEV; listed as Homo sapiens) [compound 485]”, the Peptide exchange entry is “″+++″ (≧50% = +++)”.

Turning to “486 (AVMESIQGV; listed as Homo sapiens) [compound 486]”, the Peptide exchange entry is reported as “″+++″ (≧50% = +++)”.

Consider “487 (LLINSVFHV; listed as Homo sapiens) [compound 487]”, for which the Peptide exchange entry is listed as “″+++″ (≧50% = +++)”.

With “488 (FLAEDPKVTL; listed as Homo sapiens) [compound 488]”, the Peptide exchange entry is “″+++″ (≧50% = +++)”.

With “490 (FLLQHVQEL; listed as Homo sapiens) [compound 490]”, the Peptide exchange entry was “″+++″ (≧50% = +++)”.

In the case of “491 (GLNDRSDAV; listed as Homo sapiens) [compound 491]”, the Peptide exchange result is on record as “″++″ (≧20% = ++)”.

Regarding “492 (SLFDGFADGLGV; listed as Homo sapiens) [compound 492]”, the Peptide exchange result is on record as “″+++″ (≧50% = +++)”.

With “493 (GLLGEKTQDLIGV; listed as Homo sapiens) [compound 493]”, the Peptide exchange entry is “″+++″ (≧50% = +++)”.

In the case of “494 (ALQPEPIKV; listed as Homo sapiens) [compound 494]”, the Peptide exchange entry was “″++″ (≧20% = ++)”.

Turning to “495 (FIFSEKPVFV; listed as Homo sapiens) [compound 495]”, the Peptide exchange entry is “″+++″ (≧50% = +++)”.

Regarding “496 (FLVEKQPPQV; listed as Homo sapiens) [compound 496]”, the Peptide exchange entry was “″+++″ (≧50% = +++)”.

For the substance “497 (GLLEKLTAI; listed as Homo sapiens) [compound 497]”, the Peptide exchange result was “″+++″ (≧50% = +++)”.

On to “498 (KLWTGGLDNTV; listed as Homo sapiens) [compound 498]”, for which the Peptide exchange entry is listed as “″+++″ (≧50% = +++)”.

For the substance “500 (SLMEDQVLQL; listed as Homo sapiens) [compound 500]”, the Peptide exchange result was “″+++″ (≧50% = +++)”.

In the case of “501 (LLDPNVKSIFV; listed as Homo sapiens) [compound 501]”, the Peptide exchange entry is listed as “″+++″ (≧50% = +++)”.

The values above are taken from US20170037111A1, “Novel peptides and combination of peptides for use in immunotherapy against ovarian cancer and other cancers” (immatics biotechnologies GmbH, priority 2015, published 2017).
